Data as given in paper doi:10.64898/2025.12.20.695652 (bioRxiv, 2025).

Target: N237_S47D with C-terminal human Fc tag
Experiment: BLI

“Nipah virus attachment glycoprotein G receptor-binding domain (from UniProt Q9IH62 176-602) (domain or fragment)” showed a Kd of 3.8 nM.
